Laboratory results reported in the supplement of paper PMC11780869.

System: Bacillus subtilis
Experiment: cleaved RNA product abundance (RNA/gDNA barcode ratio) relative to median wild-type variant (ratio to wild type); higher = more accumulation of the downstream cleavage product
Details: experiment (reporter, strain, medium): exp 8a: truncated aprE reporter, strain BJT201 with 2% xylose (RNase J1 expressed); cleavage site: glnRA (positions -5 to +31 mutated)
Method in brief: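 Cleaved product abundance was measured with barcoded reporter mRNAs (truncated aprE or tetM) carrying mutagenized RNase Y cleavage-site windows in the B. subtilis chromosome. Cultures in LB at 37°C grew from OD600 0.0003 to 0.3. Gel-selected cleaved RNA was reverse transcribed and barcode-sequenced with genomic DNA barcodes, and the RNA:gDNA barcode ratio per construct was scaled to the median construct bearing the unmutated site.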

With “CGACATGTCCCGCTTCTTTCATTAAACCGTTAGCAACTGTTTTGTTATATACATTTACCTTTTAAGAGGAGGAAT” the “cleaved RNA product abundance” value was 0.313.
For “CGACATGTCCCGCTTCTTTCATTAAACCGTTAGCAACTGTTTTTCTATATACATTTACCTTTTAAGAGGAGGAAT”, the “cleaved RNA product abundance” value was 0.464.
For “CGACATGTCCCGCTTCTTTCATTAAACCGTTATCAACTGTTTTGCTATATACATTTACCTTTTAAGAGGAGGAAT”, the “cleaved RNA product abundance” value was 0.218.
For “CGACATGTCCCGCTTCTTTCATTAAACCGTTTGCAACTGTTTTGCTATATACATTTACCTTTTAAGAGGAGGAAT”, the “cleaved RNA product abundance” value was 0.331.
With “CGACATGTCCCGCTTCTTTCATTAAACTGTTAGCAACTGTTTTGCTATATACATTTACCTTTTAAGAGGAGGAAT” the “cleaved RNA product abundance” value was 1.02.
“CGACATGTCCCGCTTCTTTCATTAACCCGTAAGCAACTGTTTTGCTATATACATTTACCTTTTAAGAGGAGGAAT” was tested, and the “cleaved RNA product abundance” value was 0.312.
In the case of “CGACATGTCCCGCTTCTTTCATTAACCCGTTACCAACTGTTTTGCTATATACATTTACCTTTTAAGAGGAGGAAT”, the “cleaved RNA product abundance” value is reported as 0.162.
In the case of “CGACATGTCCCGCTTCTTTCATTAACCCGTTACTCACTGTTTTGGAATATACATTTACCTTTTAAGAGGAGGAAT”, the “cleaved RNA product abundance” value is reported as 0.147.
With “CGACATGTCCCGCTTCTTTCATTAACCCGTTAGAAACTGTTTTGCTATATACATTTACCTTTTAAGAGGAGGAAT” the “cleaved RNA product abundance” value was 0.187.
For “CGACATGTCCCGCTTCTTTCATTAACCCGTTAGCAACTGTATTGCTATATACATTCACCTTTTAAGAGGAGGAAT”, the “cleaved RNA product abundance” value was 0.379.
In the case of “CGACATGTCCCGCTTCTTTCATTAACCCGTTAGCAACTGTTTTGCCATATACATTTACCTTTTAAGAGGAGGAAT”, the “cleaved RNA product abundance” value is reported as 0.158.
For “CGACATGTCCCGCTTCTTTCATTAACCCGTTAGCAACTGTTTTGCTATATAAATTTACCTTTTAAGAGGAGGAAT”, the “cleaved RNA product abundance” value was 0.627.
In the case of “CGACATGTCCCGCTTCTTTCATTAACCCGTTAGCAACTGTTTTGCTATATACATTTACATTTTAAGAGGAGGAAT”, the “cleaved RNA product abundance” value is reported as 2.01.
For “CGACATGTCCCGCTTCTTTCATTAACCCGTTAGCAACTGTTTTGCTATATACATTTACCATTTAAGAGGAGGAAT”, the “cleaved RNA product abundance” value was 1.41.
With “CGACATGTCCCGCTTCTTTCATTAACCCGTTAGCAACTGTTTTGCTATATACATTTACCTTTTAAGAGGAGGAAT” the “cleaved RNA product abundance” value was 0.819.
In the case of “CGACATGTCCCGCTTCTTTCATTAACCCGTTAGCAACTGTTTTGCTATATACATTTACTTTTTAAGAGGAGGAAT”, the “cleaved RNA product abundance” value is reported as 1.04.
For “CGACATGTCCCGCTTCTTTCATTAACCCGTTAGCAACTGTTTTGCTATATACCTATACCTTTTAAGAGGAGGAAT”, the “cleaved RNA product abundance” value was 0.789.
For “CGACATGTCCCGCTTCTTTCATTAACCCGTTAGCAACTGTTTTGCTATATAGATTTACCTTTTAAGAGGAGGAAT”, the “cleaved RNA product abundance” value was 0.53.
For “CGACATGTCCCGCTTCTTTCATTAACCCGTTAGCAACTGTTTTGCTATATATATTTACCTTTTAAGAGGAGGAAT”, the “cleaved RNA product abundance” value was 1.16.
In the case of “CGACATGTCCCGCTTCTTTCATTAACCCGTTAGCAACTTTTTTGCTATATACATTTACCTTTTAAGAGGAGGAAT”, the “cleaved RNA product abundance” value is reported as 0.909.
In the case of “CGACATGTCCCGCTTCTTTCATTAACCCGTTAGCAAGTGTTTTGCTATATACATTTACCTTTTAAGAGGAGGAAT”, the “cleaved RNA product abundance” value is reported as 0.522.
With “CGACATGTCCCGCTTCTTTCATTAACCCGTTAGTAACTGTTTTGCTATATACATTTACCTTTTAAGAGGAGGAAT” the “cleaved RNA product abundance” value was 0.255.
“CGACATGTCCCGCTTCTTTCATTAACCCTTTAGCAACTGTTTTGCTATATACATTTACCTTTTAAGAGGAGGAAT” was tested, and the “cleaved RNA product abundance” value was 0.181.
For “CGACATGTCCCGCTTCTTTCATTAAGCCGTAAGCAACTGTTTTGCTATATACATTTACCTTTTAAGAGGAGGAAT”, the “cleaved RNA product abundance” value was 0.519.
For “CGACATGTCCCGCTTCTTTCATTAAGCCGTTACCAACTGTTTTGCTATATACATTTACCTTTTAAGAGGAGGAAT”, the “cleaved RNA product abundance” value was 0.21.
In the case of “CGACATGTCCCGCTTCTTTCATTAAGCCGTTAGCAACTGTTTTGCTATATACATTTACCTTTTAAGAGGAGGAAT”, the “cleaved RNA product abundance” value is reported as 0.855.
For “CGACATGTCCCGCTTCTTTCATTAAGCCGTTAGCAACTGTTTTGTTATATACATTTACCTTTTAAGAGGAGGAAT”, the “cleaved RNA product abundance” value was 0.364.
“CGACATGTCCCGCTTCTTTCATTAAGCCGTTATCAACTGTTTTGCTATATACATTTACCTTTTAAGAGGAGGAAT” was tested, and the “cleaved RNA product abundance” value was 0.21.
“CGACATGTCCCGCTTCTTTCATTAAGCCGTTATCAACTGTTTTGCTATATTCATTTACCTTTTAAGAGGAGGAAT” was tested, and the “cleaved RNA product abundance” value was 0.0648.
With “CGACATGTCCCGCTTCTTTCATTAATACATTAACAACTGTTTTGCTATATACATTTACCTTTTAAGAGGAGGAAT” the “cleaved RNA product abundance” value was 0.235.
With “CGACATGTCCCGCTTCTTTCATTAATACATTAGCAACTGTTTTGCTATATACATTTACCTTTTAAGAGGAGGAAT” the “cleaved RNA product abundance” value was 0.748.
In the case of “CGACATGTCCCGCTTCTTTCATTAATACATTAGCGACTTTTTTGCTATATACACTTACCTTTTAAGAGGAGGAAT”, the “cleaved RNA product abundance” value is reported as 0.352.
For “CGACATGTCCCGCTTCTTTCATTAATACGATAGCAACTGTTTTGCTATATACATTTACCTTTTAAGAGGAGGAAT”, the “cleaved RNA product abundance” value was 0.935.
With “CGACATGTCCCGCTTCTTTCATTAATACGTAAGCAACTGTTTTGCTATATACATTTACCTTTTAAGAGGAGGAAT” the “cleaved RNA product abundance” value was 0.225.
In the case of “CGACATGTCCCGCTTCTTTCATTAATACGTTAACAACTGTTTTGCTATATACATTTACCTTTTAAGAGGAGGAAT”, the “cleaved RNA product abundance” value is reported as 0.195.
With “CGACATGTCCCGCTTCTTTCATTAATACGTTACCAACTGTTTTGCTATATACATTTACCTTTTAAGAGGAGGAAT” the “cleaved RNA product abundance” value was 0.215.
With “CGACATGTCCCGCTTCTTTCATTAATACGTTAGAAACTGTTTTGCTATATACATTTACCTTTTAAGAGGAGGAAT” the “cleaved RNA product abundance” value was 0.292.
In the case of “CGACATGTCCCGCTTCTTTCATTAATACGTTAGCAAATGTTTTGCTATATACATTTACCTTTTAAGAGGAGGAAT”, the “cleaved RNA product abundance” value is reported as 1.26.
In the case of “CGACATGTCCCGCTTCTTTCATTAATACGTTAGCAACTATTTTGCTATATACATTTACCTTTTAAGAGGAGGAAT”, the “cleaved RNA product abundance” value is reported as 1.33.
“CGACATGTCCCGCTTCTTTCATTAATACGTTAGCAACTGATTTGCTATATACATTTACCTTTTAAGAGGAGGAAT” was tested, and the “cleaved RNA product abundance” value was 1.24.
With “CGACATGTCCCGCTTCTTTCATTAATACGTTAGCAACTGTTATGCTATATACATTTACCTTTTAAGAGGAGGAAT” the “cleaved RNA product abundance” value was 0.886.
With “CGACATGTCCCGCTTCTTTCATTAATACGTTAGCAACTGTTTAGCTATATACATTTACCTTTTAAGAGGAGGAAT” the “cleaved RNA product abundance” value was 0.376.
“CGACATGTCCCGCTTCTTTCATTAATACGTTAGCAACTGTTTTACTATATACATTTACCTTTTAAGAGGAGGAAT” was tested, and the “cleaved RNA product abundance” value was 0.547.
With “CGACATGTCCCGCTTCTTTCATTAATACGTTAGCAACTGTTTTGATATATACATTTACCTTTTAAGAGGAGGAAT” the “cleaved RNA product abundance” value was 0.527.
In the case of “CGACATGTCCCGCTTCTTTCATTAATACGTTAGCAACTGTTTTGCCATATACATTTACCTTTTAAGAGGAGGAAT”, the “cleaved RNA product abundance” value is reported as 0.23.
For “CGACATGTCCCGCTTCTTTCATTAATACGTTAGCAACTGTTTTGCTAAATACATTTACCTTTTAAGAGGAGGAAT”, the “cleaved RNA product abundance” value was 0.266.
With “CGACATGTCCCGCTTCTTTCATTAATACGTTAGCAACTGTTTTGCTACATACATTTACCTTTTAAGAGGAGGAAT” the “cleaved RNA product abundance” value was 0.381.
With “CGACATGTCCCGCTTCTTTCATTAATACGTTAGCAACTGTTTTGCTATAAACATTTACCTTTTAAGAGGAGGAAT” the “cleaved RNA product abundance” value was 0.505.
“CGACATGTCCCGCTTCTTTCATTAATACGTTAGCAACTGTTTTGCTATATAAATTTACCTTTTAAGAGGAGGAAT” was tested, and the “cleaved RNA product abundance” value was 1.02.
For “CGACATGTCCCGCTTCTTTCATTAATACGTTAGCAACTGTTTTGCTATATACATGTACCTTTTAAGAGGAGGAAT”, the “cleaved RNA product abundance” value was 0.369.
In the case of “CGACATGTCCCGCTTCTTTCATTAATACGTTAGCAACTGTTTTGCTATATACATTCACCTTTTAAGAGGAGGAAT”, the “cleaved RNA product abundance” value is reported as 0.695.
“CGACATGTCCCGCTTCTTTCATTAATACGTTAGCAACTGTTTTGCTATATACATTTACCATTTAAGAGGAGGAAT” was tested, and the “cleaved RNA product abundance” value was 0.353.
With “CGACATGTCCCGCTTCTTTCATTAATACGTTAGCAACTGTTTTGCTATATACATTTACCTTTTAAGAGGAGGAAT” the “cleaved RNA product abundance” value was 0.97.
With “CGACATGTCCCGCTTCTTTCATTAATACGTTAGCAACTGTTTTGCTATATACATTTACTTTTTAAGAGGAGGAAT” the “cleaved RNA product abundance” value was 0.472.
In the case of “CGACATGTCCCGCTTCTTTCATTAATACGTTAGCAACTGTTTTGCTATATACATTTATCTTTTAAGAGGAGGAAT”, the “cleaved RNA product abundance” value is reported as 1.51.
For “CGACATGTCCCGCTTCTTTCATTAATACGTTAGCAACTGTTTTGCTATATACGTTTACCTTTTAAGAGGAGGAAT”, the “cleaved RNA product abundance” value was 0.284.
With “CGACATGTCCCGCTTCTTTCATTAATACGTTAGCAACTGTTTTGCTATATAGATTTACCTTTTAAGAGGAGGAAT” the “cleaved RNA product abundance” value was 0.956.
In the case of “CGACATGTCCCGCTTCTTTCATTAATACGTTAGCAACTGTTTTGCTATATATATTTACCTTTTAAGAGGAGGAAT”, the “cleaved RNA product abundance” value is reported as 1.83.
For “CGACATGTCCCGCTTCTTTCATTAATACGTTAGCAACTGTTTTGCTATATCCATTTACCTTTTAAGAGGAGGAAT”, the “cleaved RNA product abundance” value was 0.193.
“CGACATGTCCCGCTTCTTTCATTAATACGTTAGCAACTGTTTTGCTATTTACATTTACCTTTTAAGAGGAGGAAT” was tested, and the “cleaved RNA product abundance” value was 0.232.
“CGACATGTCCCGCTTCTTTCATTAATACGTTAGCAACTGTTTTGTTATATACATTTACCTTTTAAGAGGAGGAAT” was tested, and the “cleaved RNA product abundance” value was 0.372.
In the case of “CGACATGTCCCGCTTCTTTCATTAATACGTTAGCAACTGTTTTTCTATATACATTTACCTTTTAAGAGGAGGAAT”, the “cleaved RNA product abundance” value is reported as 0.455.
“CGACATGTCCCGCTTCTTTCATTAATACGTTAGCAACTTTTTTGCTATATACATTTACCTTTTAAGAGGAGGAAT” was tested, and the “cleaved RNA product abundance” value was 0.721.
With “CGACATGTCCCGCTTCTTTCATTAATACGTTAGCAAGTGTTTTGCTATATACATTTACCTTTTAAGAGGAGGAAT” the “cleaved RNA product abundance” value was 0.882.
In the case of “CGACATGTCCCGCTTCTTTCATTAATACGTTAGCAATAGTTTTGCTATATACATTTACCTTTTAAGAGGAGGAAT”, the “cleaved RNA product abundance” value is reported as 0.874.
“CGACATGTCCCGCTTCTTTCATTAATACGTTAGCAATTGTTTTGCTATATACATTTACCTTTTAAGAGGAGGAAT” was tested, and the “cleaved RNA product abundance” value was 0.823.
